Our source for the decrease in fluorescence intensity, increase in fluorescence intensity and relative fluorescence change (Fbound/Funbound) values is US20230250461A1.

Assay [1] has as its target IvaP from Vibrio cholerae, the alkaline serine protease corresponding to the gene VC 0157 (purified) (Vibrio cholerae). Put plainly: cell-based or functional assay.
Assay [2] shares this target. Put plainly: solvatochromic dye fluorescence, multi-well plate reader; probe 3 µM, IvaP 1 µM preincubated with PMSF (FIG. 9B).
The target is the same in assay [3]. Put plainly: solvatochromic dye fluorescence, plate reader; I9-dye conjugate 3 µM, IvaP 1 µM (FIG. 7A).

For the substance I9 E123C-MDCC conjugate (peptide), the decrease in fluorescence intensity in assay [1] was 4 fold.
I9 I128C-IANBD conjugate (peptide): in assay [2], the increase in fluorescence intensity came to 2 fold. For the same substance, in assay [3], the relative fluorescence change (Fbound/Funbound) is 2 fold.
